Source: a protein production outcome set (Wang et al. 2014)

Assay: label from the status in PepcDB records

**Q.** Which protein production does the source give for “MKKILFCLPLLLLALQSCEIEDEYMYDKGLYTIDWDAAADSSSVTLIDRFWNTEENYFNYGNDGSIKDFHYWPQAHAMDVMIDAYNRTGDSKYSDLFDKWYVGIKAKNGGSYWNNFYDDMEWIALTMIRLYEVTDENKYLETSQEMWNEIKTGWNDYAGGGIAWTHDQLWSKNACSNGPAALIAARLYRINGNQEDLDWAVNIYKWERENLFNPATGAIYDNVNGETGELSTLSLSYNQGTFLGAAYELYKITGEESYLKDARKAANFAISNSSMIDTGNNLLRDEGDGDGGLFKGIFMRYYVQLIMEPNLDPIYKKKFITFFNNNAEILWRKGINKLDLLYNTNWAMNNSGNNHLTTQTSGCTLIEAKALFEKSLK” here?
**A.** The protein production was “failed”.

**Q.** Which protein production does the source give for “MKKILVHGVKEKTPLGFCDVPRKNLLDFLRDMKSISVPNEPRYKPLRKIHQAASDGDTERLQRMISLGKHSVHDRDFKERTALHFACACGQVEVVSILLRNNCDIDAADMNFITPLMKAVQNWTYECVCILLKHGADPNRKDKNGNTSLHYAVSEDNQTLAKCLLKYSANMEQKNKDGFTPLLLALKENKIEMAKFLVKMGANIHVFDDMRRNTLLYAIRWDSKDMVNLLLDEGIDFFFRDVFGWTALRYAIEGTSKGSREILMNYDEMLRRKNKDGIPEYKFFEDKSLDKHPNNPTSGCTFPKSNENACKFDDELDISKYVLGTCPNNIHGAGEEGDKSETKKAADVQVWTNPTLKSSTKGKVPNLNEVGTMTESHHFIKESDLEIESLVETFSYDNEDKQSMSDDGHFSGTTPKWCQNDTNRKITVQDCMYPNLKSPTEGKIPTRSKAGKMAESAHFIIESDLEIESLEETVSCDSEDKQLLV” here?
**A.** The protein production was “failed”.

**Q.** For “MKKIRLSKFIKMIVVILFLISVAASFYFFHVAQVRDDKSFISNGQRKPGNSLYAYDKSFDKLLKQKIEMTNQNIKQVAWYVPAVKKTHKTAVVVHGFANSKENMKAYGWLFHKLGYNVLMPDNIAHGESHGQLIGYGWNDRENIIKWTEMIVDKNPSSQITLFGVSMGGATVMMASGEKLPSQVVNIIEDCGYSSVWDELKFQAKEMYGLPAFPLLYEVSTISKIRAGFSYGQASSVEQLKKNNLPALFIHGDKDNFVPTSMVYDNYKATAGKKELYIVKGAKHAKSFETEPEKYEKRISSFLKKYEK”, which protein production is on record?
**A.** Its protein production is “failed”.

**Q.** Which protein production does the source give for “MKKISVKFNQKQIFFGIIGLLLLGIIGIFAYKLNEYFSEPVIKAKSINLDASPSPKSKIIERLKKDQKIKVLKKNNNTDWWQVEIGSQKGWVASWLIQKKNYNAKNAGRLAEATIVLDPGHGGVDSGTQASNGAMEKTYTLRTALKVYKLLKAKNVHVIMTRHTNKTVALASRPALSNRVKANIYISFHFNSAGEQNAAEGYEVFKYNHNANSFASTIDKQFNNLPLYNRGVSFGNFEVLRDNKRPAILVEMGFMDSDYDFSYIQKSSYQQKVANDVTKSLTSYFN” here?
**A.** The protein production was “failed”.

**Q.** For “MKKKFIITFILSLALFAGIFWVANKVLDIMELTSKVEFVGSDLGEGNNIEQRVENELLFLVLGLDSDDFSGATTEQNRTDTMILCKVNFDTGKIDILSIPRDSRVMVNGKLDKINHAHHFGGLKLAMKTTRDFLNLDIDYYVRVNFFSVKDIVDALGGVEVDVPVQVDVAEDNVHLKPGKQVLNGKQALQFARFRAGYKEGDVGRVKAQQILIKALVKELTKAKNIAKIPEILEVVKKTVNTNIPFSTIAKLSLKVNNLSEDKINTQIVPGESAYINNTSYFIPDRSKLNAIVKEMFSDYLLNKSGSSQVDTDKNKNNTNTKNNNNKNNNTNNRNNSNNNKNNNNKNNKNNKNNNR”, which protein production is on record?
**A.** The protein production was “failed”.

**Q.** For “MKKKILIPVFASVMALSVSSIVNADEVNDSSQNKDDKTNTELNLGEYKEVKYKVAKIKDGVAIKIREEGQVQNIAYSGDEFTVLGTQGEWVKVKVEDGEGWLATRYVDISEGVGYTNADKVNLRKDKSESSEVIEELEKGSSLLVLEDNGDWLKVKDGETEGYVKSSYISDKAPVIEEPQVNPSIDQNVDSTNNNQQNNANTNQQNNNSNVPTANSNAVQAVLNLAYSKQGCPYVWGAEGPNTFDCSGFTQYVYRNAVGKNIPRTSKAQSKYGQTVSKANLQPGDLVFFTTNGSGSVSHVGIYVGGGNMIHSPSTGKTVSVTSINSSYYTARFVTAKRIL”, which protein production is on record?
**A.** Its protein production is “failed”.

**Q.** With “MKKKLGLLAMVVALMAIATGCSETGQPITSKSTGIWNEYFVYPLSQLITYFADLFNSNYGLAIVITTLIIRFALLPLMIKQTKSTKAMQALQPEMVKLKEKYSSKDQATQQKLQQEMMQLYQKNGVNPLAGCLPIFVQMPILFAFYHAIMRTAEIKQHSFLWFDLGHADPFYILPVVAAITTFIQQKLAMAGTAGQNPQMAMMLWLMPIMILIFAINFPAALSLYWVVGNIFGIAQMYFIKGPEIKASKAGKAGGSSK” as the sequence, how does the protein production read?
**A.** Its protein production is “failed”.

**Q.** Which protein production does the source give for “MKKLAIVIPAYKVDFFETVLFSLAQQTCKDFTVYIGEDCSRDDFKSLIEQYSKQLDIVYRRFEVNFGGHDLVAQWNRCIQLTQNEPWLWLFSDDDIMGPRCVEYFFNTIAIDNGAFDIYHFDVKIVDCENQIVRIPTVYPSVIDSETFYRRKASARLDSFVVEYIFLRDIYNCTGGFQHFDLAWGSDIATWVKIGADKGIKTISGDYVYWRKSKKNITPNMDNKMVLRKLTADIEFTHWINEFFHKSSVYRFTKYAFFRLVVHYSQAISKSQIRLLLDKAVGKNIISFNDAFIINWTYRFIQLAKRVKDVLYFLEHHHHHH” here?
**A.** Its protein production is “not failed”.

**Q.** With “MKKLDASTAVSLTGMPELERIVESLCTPESYEAVYHQSLHGSPMPSLEALTELMARLRAALFPGYFGASNIVLESMRYHLAANLDSIYRILAEQVRRGGCFACADYATDCQNCESHSQETAMEFMRALPRIRQLLATDVKAAYEGDPAAKSPGETIFCYPSIYAMIHHRIAHELYRLDVPVIPRIISEMAHSRTGIDIHPGATVGEEFFIDHGTGVVIGETCIIGRGCRLYQGVTLGALSFPKDGGGALIKGIPRHPILQDGVTVYAGATILGRVTIGAGAIVGGNVWVTHDVAPGAKVVQQKSSPPAAEDRMVGTKNGTPKA” as the sequence, how does the protein production read?
**A.** The protein production was “failed”.

**Q.** With “MKKLIFLTLSIVSFNNYAVDFVYRVDSTPPDVIFRDGFSLLGYNRNFQQFISGRSCSGGSSDSRYIATTSSVNQTYAIARAYYSRSTFKGNLYRYQIRADNNFYSLLPSITYLETQGGHFNAYEKTMMRLQREYVSTLSILPENIQKAVALVYDSATGLVKDGVSTMNASYLGLSTTSNPGVIPFLPEPQTYTQQRIDAFGPLISSCFSIGSVCQSHRGQRADVYNMSFYDARPVIELILSK” as the sequence, how does the protein production read?
**A.** The protein production was “failed”.

**Q.** For “MKKLLTKGQIAILVIFSVLIIDQVIKIWIKTHMYWHESIRITDWFYIYFTENNGMAFGMELFGKLFLTTFRIVAVGLIGWYLYKIVKRGLKTGYIICVSLILTGALGNIIDSVFYGVIFNESTHSQIASFMPDGGGYSTWFYGKVVDMFYFPIIDTNWPTWMPFVGGEHFIFFSPIFNFADAAISCGIIALLLFYSKYLNDSYHHSVTKK”, which protein production is on record?
**A.** Its protein production is “failed”.

**Q.** Which protein production does the source give for “MKKLLVIRNDKIGDFMLCFPAFMMLKQSMPNIEITALVPNYTAPLAELCPAIDHLIIDNTDKQDPIAFKQVQQAVQNGQFDAVICFVSSWYNAKLTWQSGIRYRLAPATKLFQFLYNHRLTQRRSQSIKAESEYNLDLARAFLIDHHMMPVEPQLEHHHHHH” here?
**A.** Its protein production is “not failed”.

**Q.** With “MKKLMITQEAGVATVLIKNPPVNILTIDLINELNAFILSLKDDRETKVVVFKSFHEAFFIAHLDLNVINGTSGGQAASIEFNHMIANIKAMKQLSIAVVDGVARGGGNEFVMACDLAYGTENSAFAQPELYINIPTGGQGAVQFARRLGKGKALQALLTGADFTAQQAETLNIITQFVLKAELDVFLAQLLSVIVGWEIRDIVMYKEIIAASIKDEAVGTELELRYFLERAREEKTQTIIAAFLKHGGQTEREAKDMQGIFVDTAAELSK” as the sequence, how does the protein production read?
**A.** The protein production was “failed”.

**Q.** With “MKKLPLVFSGCLLGLAGAGNLILDTLPVLSHLFSLIGLVLWIYFLILHLFNWKETKQELTKPPLLSGMATFPMAGMILSTYVFRVFSYLPLVAQGIWWFSFLLDLTLIAGFTIKFACPGRRVHATPSWTVLYVGIAVAALTYPLVGIIEIAYATLSFGFLLTFYLYPLIYSDLKKHPLPLALLGQEGIYCAPFSLLLASLVRVGGTSLPTWVLIVMILASQSFFFFVLTRLPNILKQGFQPAFSALTFPTIITATSLKMAQGILKLPFLDYLVLAETIICLTILFFVLGAYLIWLRKKV” as the sequence, how does the protein production read?
**A.** The protein production was “failed”.

**Q.** With “MKKLSGIIVLLLAGAALYLALKTSPIDPLAWDAPAAPQMTGVLEPNDTLMKAELLGQGQLHGPEDTAVDSQGRVYAGLADGRVVRLDASGKVETFVDTGGRPLGMDFDAAGNLILADAWKGLLRIDPQGKVETLATEADSVPFAFTDDLDIASDGRIYFSDASSKFHQPDYILDLLEARPHGRLLRYDPSTGKTEVLLKDLYFANGVALSANEDFVLVNETYRYRITRYWLKGEKAGQHEVFIDNLPGLPDNLQGDRKGTFWVALPTPRKADADFLHRHPWLKAQLAKLPRMFLPKPTAYGLVIAIDEQGRIVRSLHDTSGHHLRMITSAKPVGDQLYFGSLENDRIGRLAIPLEHHHHHH” as the sequence, how does the protein production read?
**A.** Its protein production is “not failed”.

**Q.** For “MKKLVLTGAAGRLGSYLREPLTALCDTLVSTDIVDDIGTLYAGETYVKADLAQMDQIAPVLEGADMVVHFGAIVDEKPFEELLGPNFVGSYNIWEAGYKAGVKRIVYASSIHAVGMHLKSDFIGIDAEHRPDTFYGLAKCFTEDLGRMYWDKRGLESVHLRILSCAQVNNTRALGSWLSYPDLIQLVTRAIDTPSVGFSIIYGVSNNDRAPVDNAKASFLGYRPIDNAEVYAAEVLAQAEPVDTTDPGQMCHGGPFAKVDLGQSGLAQMNVVNDKKQT”, which protein production is on record?
**A.** The protein production was “failed”.

**Q.** Which protein production does the source give for “MKKPSSTPAPRLASLDILRGFDLFLLVFFQPVLWTLAHQLNLPWLNSILFQFDHEVWEGFRFWDLVMPLFLFMTGASMPFSFSKFKDNPDKGPVYRKIIKRFILLFIFGMIVQGNLLGLDPKHLYLYSNTLQAIATGYLIAAIIQLHCNFRWQLIVTALLLLIYWIPMTFLGDFTPEGNFAEKVDRLVLGHFRDGVFWNEDGSWSFSAHYNYTWIWSSLTFGATVMLGAFAGKIMKAGKDNRRKVVQTLLIIGISLIAFSLIWSLQMPIIKRLWTSSMTLFSGGLCFLLMGAFYYRIDYKGHSRGLNWLKIYGMNSITAYILGEVINFRCIAASVSYGLEQYLGGYYQVWLSFANYLIVFLILRIMYRQKIFLKI” here?
**A.** Its protein production is “failed”.

**Q.** With “MKKQELIHLHGLLAQVQNHYEAESGTEVDHDEYEELGVKPTSIHKSKTDHKAAVFAIADGIASEMADETKEPVSAAADLEHHHHHH” as the sequence, how does the protein production read?
**A.** The protein production was “not failed”.

**Q.** With “MKKQSLVATSLLAAFITGACTADTNIQAKPIVSQVKAKKLIKPNVLFIAVDDLRVQYGPYDFDKAITPNIDRLVNQGVAFTQAYSNVPVCGASRASMLTGVRPTINRFVAFESADKVAPWAPSIAKVFSDNGYTTYSLGKIFNNLTDHANDWSEFPWRPEGAKNEDSTSGNKKQASLLSRHDYVTSDGVAMAKKGIKNHPAFEKADVVDDAYKNGKIAKRAISDLKRLKKAGKPFFLAVGLKKPHLPFNAPSKYWDLYDESTIELTKIPLKAKDSPSQSDHNWNELRNYGHDGAMPKKGKMSDEMARKLIHGYHAATSYSDALIGNILTELESLGLEENTIVVLWGDHGWSLGEHTHWAKHSSYDVTNHIPLIIKVPGMTNGEFSKGLVESVDIFPTLTQLAGLPAPSSLQGDSLVPMLKNPQATVNDAVYPRWKNADSIRTPNYMYTEWRNKKNNKVIARMLFDHRVDPRETINVAENFKYAQVVVDLHNQLAAHIAQVEK” as the sequence, how does the protein production read?
**A.** Its protein production is “failed”.

**Q.** For “MKKSKRKNAQAQEAQETEVLVQEEAEELPEFPEGEPDPDLEDPDLTLEDDLLDLPEEGEGLDLEEEEEDLPIPKISTSDPVRQYLHEIGQVPLLTLEEEVELARKVEEGMEAIKKLSEITGLDPDLIREVVRAKILGSARVRHIPGLKETLDPKTVEEIDQKLKSLPKEHKRYLHIAREGEAARQHLIEANLRLVVSIAKKYTGRGLSFLDLIQEGNQGLIRAVEKFEYKRRFKFSTYATWWIRQAINRAIADQARTIRIPVHMVETINKLSRTARQLQQELGREPTYEEIAEAMGPGWDAKRVEETLKIAQEPVSLETPIGDEKDSFYGDFIPDEHLPSPVDAATQSLLSEELEKALSKLSEREAMVLKLRKGLIDGREHTLEEVGAFFGVTRERIRQIENKALRKLKYHESRTRKLRDFLD”, which protein production is on record?
**A.** Its protein production is “not failed”.

**Q.** With “MKKSNIKTLEQFKDQNYGKKGTAKRDSLEMGYDTFKIGALIQEARIEKGMTQEELAIKCGTTKSYISRIENNIKEVRISTLQKIVELGFGGQLQLSIKFLEHHHHHH” as the sequence, how does the protein production read?
**A.** Its protein production is “not failed”.
